In the DeepSol protein solubility set:

Test: soluble on expression in E. coli; label from the status in PepcDB or PDB records

Soluble on expression in E. coli, not soluble:
MATAPYGVRLLVGAATVAVEETMKLPRTILMYPMTLASQAAHVVMRFQQGLAELVIKGDNTLETLFPPKDEKPEWATFDEDLPDALEGTSIPLLGLSDASEAKNDDRRSDGRFALYSVSDTPETTTASRSADRSTNPKTAKHPKSAAKPTVPTPAVAAELDYPALTLAQLRARLHTLDVPELEALLAYEQATKARAPFQTLLANRITRATAK
GPGSMTSLNTELALAKRFHMLSKNYSNRPVIARRNTLPTLVRFIRSNDRETRHYSLSALLLLAQHEENVELLCLERGLVPGVYAVYKDADYDDPQLREIADQILNCLEPVLQGRDPRKASQTSVTPVGSSSDAVDSDPLNDSFSPSRRARAGRVLRGVGSDAIHTVLLDIPALDPNGGDNIEAIEDIFQTTRGVLSYSIFVENRQARLFVTCATQVVQQVLSDSGFESVVVRDDVVNQEMFGGGADGSAGLNSGGNRSNTSYYDGGSPQHRPSYLQSVANSIYQSALVLGGGSRNNDTLSARVNEQRTREQEGESTFGYISKTLSKWW
MGSDKIHHHHHHMKPRKQDEKILSDQYSYFEPIISDSCDIKFDGDKRRIGSIFISHEEICFIRKEEDYIFKISLSDVVDYNTVVTIWKNQASLTLNDNRKITFYFVTNSPLTGFISILKTYMQLSRNKETIIPDDNLLINDDDEQTKVEIFDVVGLNYEGRRKELKKLIKKMKTNDAFFFLYSDLKGNELKEELLYEDKVYEIPDYEVIPGVFLQKEPDNPYDENAIKVMISNEYSEFHVGYVPREYASRLVNYIEDTVSCNAYINGGKYKTLDYLEEKIVTKESDYGLRIHVEYKV
MQTEGAQEMVLQDAVAGIYKKLVVDASGTQLLGAILVGDNSDYDALLHCYLNKTVLPDHAANLLFDTGMLDGEMPDSAIICSCHNVTKGDLVAEIQAGTTNLTDLKANTKAGTGCGGCSNMVKSVLDTQLAAMGVEVNNHLCEHFELSRQEMFHICQVEQIKDFDTLIALHGKGHGCDICKPTAASVFASLWNEHIMEPQHQSLQDSNDAFMANLQKDGSYSIVPRVPGGEITPDKLIVLGEVAQQYDLYTKITGGQRVDLFGAQLEQLPEIWQTLIDAGFETGHAYGKSVRTVKSCVGSTWCRYGVDDSVGLAIELENRYKGLRAPHKLKFAVSGCTRECAEAQSKDIGVIATENGWNLYVCGNGGMRPRHADLFASDLSKSELITMIDRVLMFYVSTADRLQRTSVWMENMEGGLDYLKQVILDDSLNLCDSLDEQMARVVDTYQCEWKSTLDNPQKLQRFRPFLNSTSGSKVLPYQRVRGQRIPVKQEV
MRVAIFTDTFTPQVNGVAKTLERLTRYFQKENIAYSVFAPQHTAEDNFVANVNKMRSIPLTILYPECRFSFPTPRIKRELLSFKPDIIHIATPFNMGLCGLYYAKKLNIPVVGSYHTDFDAYLRYYKIEFLSNMLWNYLKWFHSHMQKNFVPSPETLHQLKHKGFQALSIWGRGVDCNLFHPAYNTDLFRKKYNITAKYVLSYIGRIAPEKDIDTLQNLIVKSTHTRNDIHWLIAGDGPLATNLRETVPQTNVTFTGYLQGGDLAEAYACSNLMVFPSATETFGNVVLESLACGTPVIGANSGGVKNIITDGKTGVLCPPKNEDAFLSSIYFLLQNEEKLKQMGIAALSYAKSKSWDEIFRGLLNEYEEVLQHNASELLALEHHHHHH
NIDGYNELTVGELTGPTTIETFPTPDLPGGLAGGVSWGPDAERFAVSVTGRTVNTNVFVVETETGESEQWTAASTAGIPQETLIEPEVVRFDSFDGREIPALFSPPDGAADGAGADGDTPVIVDIHGGPESQRRPSFSGLTQYFLSRGYAVFEPNVRGSTGYGKAYTHLDDVEKRMDSVKDLRAGVDWLHNHPAVDPDRIVAMGGSYGGFMVLAALTEYPDLWAAGVDVVGIANFVTFLENTGDWRRELREAEYGSLDTDREFLESISPINNVDRINAPLFVLHGANDPRVPVGEAEQIAEQAAEQGVPVEKLVFDDEGHGISKRENRIEAYTAVVEFLDDHV
MGSDKIHHHHHHMSISVKSNRALFDLDLLRAIVVVADCGSFTTAAARLHSTQSTISQKVRRLEDMVGHRLLVRGNRDVLPTDAGQTLLGYARHMLALNDQMLEALAGAMVGTTVRLGVPEDFVGGRTTNALSAFSRLHPQVKLEVTSGLCRDLSQAYDNGELDLVLLKQRRNSREGVACWPERLQWIDSARTPAFELDPIPLVTFPPRGLYREDMINAIEGMGRRWRISFTSSSLSGIQAAVADGMGISLLPPRAATGEHRVLGAGQGLPEVDSYEIVIVHRPTADVMVKALAEVMTQLLAGGGI
MATIKLKFRPSTVQGKAGTLCYQLCHRQENRQITTDMRIFPEWWNETKRELVAVPGNERVLTAYRKRAEKEMRDIREIIRELDCSGETYTLSEILNRYRSLPSEPGFLYYMKKEMETLWENGQYGTSRNYRRALNSFSAFLDGDDIPFSSLDSALACRYESWLWQQKVARNSSSFYMRILRAVYNKAVKQGLAVQTFPFREVYTGVARTSKRAVDEETIRKLQRLDLSGSPALALSRDMFVFSYCARGMAFVDMAYLKKEDVGGGRITYYRHKTGQYLTLRIEPCMVTILERYGRTCPESPYLFPILTDEQPELAYRQYRTGLNYHNRKLKRLGKLLGEPLPLSSYTPRHSWATAARNHDVPIAVISAGMGHSSERTTLIYLDSLDNAIIDNANEKILKGLNDTISM

Soluble on expression in E. coli, soluble:
MAHHHHHHMSVAPKRTAELLWLEQQRARQYEQHRKRVEQQKPCVDNKTPRNLSLSNKRALMEQERRKCIDEENRRLVVNMSAIMERGGGIDNKEPWRRTNGPRDAEIRRRREQQKLAEENLKLLHRLENVKPVYRLEKWEMERDENEILVDRISRYPYIPMNRRKGVGE
MNQKLLKLENLLRFHTICRQVHSPSQRRLLAWCRHGFAPASSVWRDLLGARSWQTDMLIGSALHQHRLLVTKKEKRPPRSQLSPVKTKKEVEVWVGMTVEDLASAMAKDIDCVYEALLNTAIDVDSLEANSHLDEVWIKEVIKKAGMKLKWSKLKQERIRENKDAVRRPGTDPALLKPRSPVVTVMGHVDHGKTTLLDKLRETQVAAMEVGGITQHIGAFLVSLPSGEKITFLDTPGHAAFSAMRARGAQVTDIVVLVVAADDGVMKQTVESIQHAKDAEVPIILAINKCDKTDADPEKVKKELLAYDVVCEEYGGDVQAVHVSALTGDNLMALAEATIALAEILELKADPTGPVEGTVIESFTDKGRGPVTTAIIQRGTLRKGSILVAGKSWAKVRLIFDENGKILNEAYPSMPVGIIGWRDLPSAGDEILEVESEPRAREVIEWRKSEQKEEKGKDDLKIMEEKRREHQEAHRKAREKYGSLHWKERSYIKFLERKQQRPLKPKEKVERQSNVLPIIIKGDVDGSVEAILNLLDTYDASHECELELVHFGLGDISENDVTFAETFDGVIYGFNVEAGSAIQQSAAQKGVKIKLHKIIYHLIEDLQEELSSRLPHTLEEYPIGEASILATFTVTEGKKKIPVADCRVQKGQLERHKKFKLIRNGQVIWKGSLTSLKHHKDDISVIKTGMDCGLSLDEEKVEFKPGDQVICYEENKVPTKTSWDPGF
SGNRGVVYLGSGKVEVQKIDYPKMQDPRGKKIEHGVILKVVSTNICGSDQHMVRGRTTAQVGLVLGHEITGEVIEKGRDVENLQIGDLVSVPFNVACGRCRSCKEMHTGVCLTVNPARAGGAYGYVDMGDWTGGQAEYVLVPYADFNLLKLPDRDKAMEKIRDLTCLSDILPTGYHGAVTAGVGPGSTVYVAGAGPVGLAAAASARLLGAAVVIVGDLNPARLAHAKAQGFEIADLSLDTPLHEQIAALLGEPEVDCAVDAVGFEARGHGHEGAKHEAPATVLNSLMQVTRVAGKIGIPGLYVTEDPGAVDAAAKIGSLSIRFGLGWAKSHSFHTGQTPVMKYNRALMQAIMWDRINIAEVVGVQVISLDDAPRGYGEFDAGVPKKFVIDPHKTFSAA
MIKFMSIASGSSGNCYYLSNGNQALLIDAGIPLRSISKALKDHQLPIEGNVVGVLVTHDHADHIRTIGCLGEKFHLPVFATERVHNGINSSRYMDHLPLLSRRNILQEETFRLAGFDITAFPIPHDATENVGYHITAPGFSFTLCTDVGHITDTISHYASKADYLVMEANYDCEMLLSGPYPEFLKERVSGPNGHLSNQETGDFLARTFHPGMKHVWLCHLSKDNNHPDLCWKSIEYRLFSEGIRVGKDMELTVLKRTSPSSLYTLLEDLEHHHHHH
MEWKDIKGYEGHYQVSNTGEVYSIKSGKTLKHQIPKDGYHRIGLFKGGKGKTFQVHRLVAIHFCEGYEEGLVVDHKDGNKDNNLSTNLRWVTQKINVENQMSRGTLNVSKAQQIAKIKNQKPIIVISPDGIEKEYPSTKCACEELGLTRGKVTDVLKGHRIHHKGYTFRYKLNG
